Entries after “also recorded” stand apart in the source; their conditions may differ.
Legend:
[1] = ref Rydengård et al., 2007; cited from earlier work
[2] = test system: sHIP; conditions: previous studies; ref Wisniewska et al., 2014; cited from earlier work
Excerpt: In a recent study, we quantitatively analyzed and compared S. pyogenes proteins in the growth medium of a strain that is virulent to mice (AP1), with a non-virulent strain (SF370).

[3] = test system: S. pyogenes; conditions: ref Shannon et al., 2010; cited from earlier work
[4] = test system: histidine-rich glycoprotein (HRG); test: Interaction of the sHIP mutant with intact HRG and histidine-rich repeats; type: binding; conditions: stated in abstract; no separate data shown
[5] = Analytical ultracentrifugation, sedimentation velocity (oligomeric state in solution); type: physicochemical; conditions: 20°C, 50000 rpm, Beckman XL-I, 20 mM MES, pH 5.5, SEDFIT c(S)
Description: Sedimentation velocity experiments were performed at 20°C and 50000 rpm using a Beckman XL-I instrument. Samples containing either sHIPwt or sHIPqp were in 20 mM MES buffer (2-(N-morpholino) ethanesulfonic acid), pH 5.5. The data were analyzed with SEDFIT using a continuous c (S) distribution (Schuck, [2000]). HYDROPRO (Ortega et al., [2011]) was used to calculate the theoretical sedimentation coefficient using the PDB IDs 4MER (sHIPwt) and 4PZ1 (sHIPqp), respectively.
Figure 2 Sedimentation velocity experiments for protein sHIP. The dotted lines indicate the theoretical sedimentation coefficient for a tetramer and a dimer respectively calculated using HYDROPRO and the structural coordinates for protein sHIPwt (PDB ID: 4MER) and protein sHIPqp (PDB ID: 4PZ1). The wild-type sHIPwt is shown in black, and the sHIPqp mutant in red respectively.

[6] = test system: histidine-rich glycoprotein (HRG); test: Antimicrobial assay: inhibition of the bactericidal activity of HRG against S. pyogenes AP1; type: cell-based; conditions: recombinant His-tagged HRG 0.45 μM, S. pyogenes AP1 2 × 10^6 cfu/ml, 10 mM MES, pH 5.5, 5 mM glucose, various sHIP concentrations, 40 min, 37°C, cfu counts, at least three repeats, mean ± SD (values only in Figure 3)
Description: The S. pyogenes strain AP1 (40/58), was from the World Health Organization Collaborating Centre for Reference and Research on Streptococci, Prague, Czech Republic. The bacteria were cultivated in THY (Todd-Hewitt broth (Difco) supplemented with 0.2% yeast extract (Oxoid) at 37°C and 5% CO2 until reaching mid-log phase (OD 620 nm approximately 0.4). The bacterial cells were washed and resuspended in 10 mM Tris-HCl, pH 7.5, containing 5 mM glucose, to a concentration of 2 × 10^9 cfu (colony forming unit)/ml. Subsequently, the bacteria were diluted to a concentration of 2 × 10^6 cfu/ml in 10 mM MES buffer, pH 5.5, containing 5 mM glucose. Fifty microliters of the bacterial solution was incubated with recombinant His-tagged HRG (Creative Biomart) at a concentration of 0.45 μM together with various concentrations of protein sHIPwt or protein sHIPqp for 40 min at 37°C. Serial dilutions of the incubation mixtures were plated on TH agar, plates were incubated over night at 37°C and the number of cfu's were determined.
Experiments were repeated at least three times and mean values ± SD are shown.

B1: HRG: abundant plasma glycoprotein of approximately 60 kDa; recombinant His-tagged HRG (protein)
chain: VSPTDCSAVEPEAEKALDLINKRRRDGYLFQLLRIADAHLDRVENTTVYYLVLDVQESDCSVLSRKYWNDCEPPDSRRPSEIVIGQCKVIATRHSHESQDLRVIDFNCTTSSVSSALANTKDSPVLIDFFEDTERYRKQANKALEKYKEENDDFASFRVDRIERVARVRGGEGTGYFVDFSVRNCPRHHFPRHPNVFGFCRADLFYDVEALDLESPKNLVINCEVFDPQEHENINGVPPHLGHPFHWGGHERSSTTKPPFKPHGSRDHHHPHKPHEHGPPPPPDERDHSHGPPLPQGPPPLLPMSCSSCQHATFGTNGAQRHSHNNNSSDLHPHKHHSHEQHPHGHHPHAHHPHEHDTHRQHPHGHHPHGHHPHGHHPHGHHPHGHHPHCHDFQDYGPCDPPPHNQGHCCHGHGPPPGHLRRRGPGKGPRPFHCRQIGSVYRLPPLRKGEVLPLPEANFPSFPLPHHKHPLKPDNQPFPQSVSESCPGKFKSGFPQVSMFFTHTFPK
modifications: left off: His-tag, end not stated, kept
notes: abundant plasma glycoprotein of approximately 60 kDa; recombinant His-tagged HRG
antimicrobial potency [1]: broad antimicrobial potency | affinity for sHIP (in words) [2]: nanomolar to micromolar affinity; also recorded: high affinity | antibacterial activity against S. pyogenes [3]: antibacterial activity including activity against S. pyogenes

B2: sHIPqp (protein)
chain: SMKQDQLIVEKMEQTYEAFSPKLANLIEALDAFKEHYEEYATLRNFYSSDEWFRLANQPWDDIPSGVLSEDLLFDMIGDHNQLAADIADLAPIMAKHM
modifications: left off: His-tag, N-terminal, cleaved
interaction with intact HRG and the histidine-rich repeats in HRG [4]: interacts with intact histidine-rich glycoprotein (HRG) and the histidine-rich repeats in HRG | oligomeric state in solution [5]: dimers in solution | oligomeric state in solution ([5]; listed as sHIP mutant): only as dimers in solution | inhibition of the bactericidal activity of HRG [6]: inhibits the bactericidal activity of HRG to the same or even higher extent that wildtype sHIP; also recorded: inhibits the bactericidal activity of HRG more efficiently than protein sHIP wildtype; also recorded: maintain its full inhibitory capacity of HRG in antimicrobial assays | inhibition of the bactericidal activity of HRG ([6]; listed as sHIP mutant): inhibits their antibacterial activity to the same or even higher extent as compared to the wild type protein sHIP
